Columns and labels:
[1] = single-arm trial, all patients treated; cited from earlier work
[2] = cited from earlier work
[3] = biological target: T1, CD3 (Homo sapiens, UniProt P07766); experiment: CD3 binding analysis by FACS on CD3-positive Jurkat E6.1 cells; conditions: for median fluorescence intensity: Jurkat E6.1 (CD3-positive), median of duplicate
T1 construct: Jurkat E6.1 cells, which express CD3 on the cell surface; endogenous in cells; host or cells: Jurkat E6.1
Experimental: (§1) Both cell lines were cultured in RPMI 1640 supplemented with 1% pen/strep and 10% fetal bovine serum at a concentration of 2 x 10^5 to 1 x 10^6 cells/ml. Cells were washed in fresh medium before the experiment and 100,000 cells per well were seeded in a 96-wells plate (duplicate wells). The dilution series of 6 antibodies were made in phosphate-buffered saline (PBS). The antibodies were diluted 10 times in the cell suspension and incubated at 4° C. in the dark for 30 minutes. After incubation, the cells were washed twice in cold PBS / 0.5% BSA, and incubated with anti-HIS-PE (only for 200) or anti-IgG1-PE (for all other compounds) at 4° C., in the dark for 30 minutes. After the second incubation step, the cells were washed twice. 7AAD was added as a live-dead staining. Detection of the fluorescence in the Yellow-B channel (anti-IgG1-PE and anti-HIS-PE) and the Red-B channel (7AAD) was done with the Guava 5HT flow cytometer. Median fluorescence intensity in the Yellow-B channel (anti-IgG1-PE and anti-HIS-PE) in life cells was determined with Kaluza software.

[4] = test system: MOLT-4 cells; experiment: CD3 binding analysis by FACS on CD3 negative MOLT-4 cells; conditions: MOLT-4 (CD3 negative)
Experimental: as §1

[5] = biological target: FcRn receptor (Homo sapiens, UniProt P55899); experiment: FcRn binding analysis by Biacore (steady state); conditions: pH 6.0, PBS with 0.05% tween-20
Experimental: Binding to the FcRn receptor was determined at pH 7.4 and pH 6.0 using a Biacore T200 (serial no. 1909913) using single-cycle kinetics and running Biacore T200 Evaluation Software V 2.0.1. A CM5 chip was coupled with FcRn in sodium acetate pH 5.5 using standard amine chemistry. Serial dilution of bispecifics and controls were measured in PBS pH 7.4 with 0.05% tween-20 (9 points; 2-fold dilution series; 8000 nM Top conc.) and in PBS pH 6.0 with 0.05% tween-20 (3 points; 2-fold dilution series; 4000 nM Top conc.). A flow rate of 30 µl/min was used and an association time of 40 seconds and dissociation time of 75 seconds. Steady state analysis was used to analyze samples.

T1 sequence (P07766 23-207): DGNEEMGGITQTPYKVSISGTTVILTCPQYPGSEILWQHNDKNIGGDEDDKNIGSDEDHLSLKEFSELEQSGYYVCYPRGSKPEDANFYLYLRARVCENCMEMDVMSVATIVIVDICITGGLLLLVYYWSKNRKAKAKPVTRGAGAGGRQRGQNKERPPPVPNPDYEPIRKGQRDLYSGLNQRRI
T1 sequence (P04234 22-171 partner): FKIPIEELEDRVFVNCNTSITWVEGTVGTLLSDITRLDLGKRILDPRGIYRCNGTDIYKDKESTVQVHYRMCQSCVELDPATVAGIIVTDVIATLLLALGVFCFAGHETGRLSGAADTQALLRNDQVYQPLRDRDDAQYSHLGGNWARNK
T1 sequence (P09693 23-182 partner): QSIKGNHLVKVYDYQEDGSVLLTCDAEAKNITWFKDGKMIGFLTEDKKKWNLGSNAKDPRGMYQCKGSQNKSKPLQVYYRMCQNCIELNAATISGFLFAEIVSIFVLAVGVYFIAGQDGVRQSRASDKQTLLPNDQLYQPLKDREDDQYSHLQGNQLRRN
T1 sequence (P20963 22-164 partner): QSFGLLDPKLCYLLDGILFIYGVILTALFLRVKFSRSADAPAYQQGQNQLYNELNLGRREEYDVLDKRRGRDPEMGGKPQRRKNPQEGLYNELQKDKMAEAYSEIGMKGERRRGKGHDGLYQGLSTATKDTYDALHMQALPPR

Row | median fluorescence intensity ([3]; 0.32 nM) | median fluorescence intensity ([3]; 1 nM) | median fluorescence intensity ([3]; 3.16 nM) | median fluorescence intensity ([3]; 10 nM) | median fluorescence intensity ([3]; 31.6 nM) | median fluorescence intensity ([3]; 100 nM) | median fluorescence intensity ([3]; 316 nM) | median fluorescence intensity ([3]; 1000 nM) | binding to the CD3 positive Jurkat E6.1 cell line ([3]; Jurkat E6.1, result in words) | RMAX (RU) [5] [RU] | Substance | complete remission rate [1] [%] | minimal residual disease (MRD) response [1] [%] | serum half-life [2] [h] | median fluorescence intensity ([4]; 1 nM) | median fluorescence intensity ([4]; 10 nM) | median fluorescence intensity ([4]; 100 nM) | median fluorescence intensity ([4]; 1000 nM)
1 | – | – | – | – | – | – | – | – | – | – | blinatumomab | 32 | 31 | 2.11 | – | – | – | –
2 | 58.28 | 56.55 | 55.37 | 60.83 | 58.71 | 55.49 | 54.99 | 66.36 | not | 96.4 | rituximab | – | – | – | 78.96 | 75.92 | 68.42 | 67.39

Source: patent US20230190951A1, “CONJUGATES OF ANTIBODIES AN IMMUNE CELL ENGAGERS” (SYNAFFIX B.V., priority 2020, published 2023)
